Results published in paper PMC3281842, “Crystal Structure of TDRD3 and Methyl-Arginine Binding Characterization of TDRD3, SMN and SPF30” (PLoS ONE, 2012).
Square brackets hold non-standard residues; d marks the D form. Ends that are not written are not given here. Arg(Me2a) = CN(C)C(=N)NCCC[C@H](N)C(=O)O; Arg(Me2s) = CN=C(NC)NCCC[C@H](N)C(=O)O; Arg(Me) = CNC(=N)NCCC[C@H](N)C(=O)O

T1: SND1 (aa 650–910) (UniProt Q7KZF4 650-910)
T1 construct: SND1, residues 650-910, extended Tudor domain; also called extended Tudor domain of SND1
T1 sequence (looked up): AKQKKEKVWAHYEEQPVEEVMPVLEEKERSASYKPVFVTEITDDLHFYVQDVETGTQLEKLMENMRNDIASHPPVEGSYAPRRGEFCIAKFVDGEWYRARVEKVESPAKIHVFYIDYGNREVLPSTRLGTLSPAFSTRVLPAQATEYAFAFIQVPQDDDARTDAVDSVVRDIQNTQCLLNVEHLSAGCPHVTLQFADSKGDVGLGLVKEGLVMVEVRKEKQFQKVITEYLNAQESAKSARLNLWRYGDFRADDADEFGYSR

T2: SPF30 (aa 65–150) (human, UniProt O75940 65-150)
T2 construct: Splicing factor 30 kDa (SPF30, SMNDC1), human, residues 65-150, covers the Tudor domain; cloned into the pET28-MHL vector; also called Splicing factor 30 kDa; SMNDC1; source: E. coli BL21 (DE3), purified (Ni-NTA, size exclusion chromatography)
T2 sequence (looked up): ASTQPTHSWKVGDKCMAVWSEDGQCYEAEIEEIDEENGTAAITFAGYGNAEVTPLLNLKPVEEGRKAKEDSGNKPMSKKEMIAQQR


How the values were obtained:
Settings in all cases: both partners purified
SMN (aa 80–170) = molecular target: T3, SMN (aa 80–170) (human, UniProt Q16637 80-170); test: fluorescence polarisation; fluorescein-labeled peptides; 20 mM Tris pH 7.5, 50 mM NaCl, 1 mM DTT, 0.01% Triton X-100; 25°C; one-site binding model; Kd the average of three independent measurements
T3 construct: Survival motor neuron protein (SMN), human, residues 80-170, covers the Tudor domain; cloned into the pET28-MHL vector; also called Survival motor neuron protein; source: E. coli BL21 (DE3), purified (Ni-NTA, size exclusion chromatography)

TDRD3 (aa 520–633) [1] = molecular target: T4, TDRD3 (aa 520–633) (human, UniProt Q9H7E2 520-633); test: as above
T4 construct: cloned into the pET28-MHL vector; also called Tudor domain-containing protein 3; source: E. coli BL21 (DE3), purified (Ni-NTA, size exclusion chromatography)

SND1 (aa 650–910) = molecular target: T1, SND1 (aa 650–910); test: as above
[2] = molecular target: T5, SMN construct covering only the Tudor domain (residues 82–147) (human, UniProt Q16637 82-147); test: as above
T5 construct: Survival motor neuron protein (SMN), human, residues 82-147, only the Tudor domain; also called SMN Tudor domain; source: E. coli BL21 (DE3), purified (Ni-NTA, size exclusion chromatography)

SPF30 (aa 65–150) = molecular target: T2, SPF30 (aa 65–150); test: as above
TDRD3 (aa 520–633) [3] = molecular target: T4, TDRD3 (aa 520–633); test: ITC; 20 mM Tris pH 8.0, 200 mM NaCl; 25°C; one-site binding model

T3 sequence (Q16637 80-170): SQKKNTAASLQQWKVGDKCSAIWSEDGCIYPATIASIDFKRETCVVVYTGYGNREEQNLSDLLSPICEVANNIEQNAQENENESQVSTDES
T5 sequence (Q16637 82-147): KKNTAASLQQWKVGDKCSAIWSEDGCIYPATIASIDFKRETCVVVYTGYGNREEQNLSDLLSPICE

| Kd (SMN (aa 80–170)) | Kd (TDRD3 (aa 520–633) [1]) | Kd (SND1 (aa 650–910)) | Kd [2] | Kd (SPF30 (aa 65–150)) | binding result (TDRD3 (aa 520–633) [3]) | Binder |
| --- | --- | --- | --- | --- | --- | --- |
| > 400 µM | – | – | – | – | – | PPGM[Arg(Me2s)]PPPPG (also: fluorescein label, position not given here, PGM motif stretch of the splicing protein SmB; also called sDMA PGM motif peptide from SmB; source: synthetic peptide (Tufts University Core Services)) [PGM(SmB214SD)] |
| 94 ± 4 µM | > 400 µM | 56 ± 8 µM | – | – | – | GGRG[Arg(Me2s)]GRG (also: fluorescein label, position not given here, GAR motif peptide named after SmD3; also called SmD3 peptide; source: synthetic peptide (Tufts University Core Services)) [SmD3RSDMA] |
| 34 ± 2 µM | > 300 µM | – | 46 µM | > 200 µM | – | TG[Arg(Me2s)]ARARARGRARGQE (also: fluorescein label, position not given here, N-terminal GAR motif stretch of PIWIL1, R4 symmetrically dimethylated; also called symmetrical dimethylated peptide of the PIWIL1 protein; source: synthetic peptide (Tufts University Core Services)) [PIWIL1-R4me2s] |
| > 150 µM | > 500 µM | – | – | > 500 µM | – | TG[Arg(Me)]ARARARGRARGQE (also: fluorescein label, position not given here, N-terminal GAR motif stretch of PIWIL1, R4 monomethylated; also called monomethylated PIWIL1 peptide; source: synthetic peptide (Tufts University Core Services)) [PIWIL1-R4me1] |
| 97 ± 3 µM | > 150 µM | – | – | > 400 µM | – | TG[Arg(Me2a)]ARARARGRARGQE (also: fluorescein label, position not given here, N-terminal GAR motif stretch of PIWIL1, R4 asymmetrically dimethylated; also called asymmetrical dimethylated PIWIL1 peptide; source: synthetic peptide (Tufts University Core Services)) [PIWIL1-R4me2a] |
| > 300 µM | – | > 300 µM | – | – | – | A[Arg(Me)]TKQTARKSY (also: fluorescein label, position not given here, histone H3 N-terminal tail; C-terminal tyrosine printed at the end of the peptide; also called histone H3R2 peptide, monomethylated; source: synthetic peptide (Tufts University Core Services)) [H3R2me1] |
| > 150 µM | – | – | – | – | – | A[Arg(Me2s)]TKQTARKSY (also: fluorescein label, position not given here, histone H3 N-terminal tail; C-terminal tyrosine printed at the end of the peptide; also called histone H3R2 peptide, symmetrically dimethylated; source: synthetic peptide (Tufts University Core Services)) [H3R2me2s] |
| – | – | – | – | – | binds | TG[Arg(Me2a)]ARARA (N-terminal GAR motif stretch of PIWIL1, R4 asymmetrically dimethylated; also called PIWIL1_R4me2a peptide of the ITC measurement; source: synthetic peptide (Tufts University Core Services)) [PIWIL1_R4me2a peptide (TGRme2aARARA)] |
| > 500 µM | – | – | – | – | – | PPGM[Arg(Me2s)]GPPP (also: fluorescein label, position not given here, PGM motif stretch of the splicing protein SmB; also called sDMA PGM motif peptide from SmB; source: synthetic peptide (Tufts University Core Services)) [PGM(SmB221SD)] |
| > 300 µM | > 500 µM | – | – | > 500 µM | – | TGRARARARGRARGQE (also: fluorescein label, position not given here, N-terminal GAR motif stretch of PIWIL1, unmethylated; also called unmethylated PIWIL1 peptide; source: synthetic peptide (Tufts University Core Services)) [PIWIL1-R4un] |
| > 300 µM | – | > 500 µM | – | – | – | YPPG[Arg(Me2s)]GGPPP (also: fluorescein label, position not given here, PGM motif stretch of the splicing protein SmB; also called sDMA PGM motif peptide from SmB; source: synthetic peptide (Tufts University Core Services)) [PGM(SmB165SD)] |
| > 200 µM | – | > 300 µM | – | – | – | A[Arg(Me2a)]TKQTARKSY (also: fluorescein label, position not given here, histone H3 N-terminal tail; C-terminal tyrosine printed at the end of the peptide; also called histone H3R2 peptide, asymmetrically dimethylated; source: synthetic peptide (Tufts University Core Services)) [H3R2me2a] |
